Key:
[1] = tested on: T1, holo-BlmI (4'-phosphopantetheinylated BlmI, produced from pBS2)
T1 sequence: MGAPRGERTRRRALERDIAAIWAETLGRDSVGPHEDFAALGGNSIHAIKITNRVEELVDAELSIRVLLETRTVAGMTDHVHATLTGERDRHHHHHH

[2] = tested on: T2, apo-BlmI (type II peptidyl carrier protein BlmI, apo-form, produced from pBS2)
T2 sequence: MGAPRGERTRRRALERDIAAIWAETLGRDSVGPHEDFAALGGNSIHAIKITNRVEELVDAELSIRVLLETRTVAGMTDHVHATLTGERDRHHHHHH

[3] = biological target: apo-BlmI (type II peptidyl carrier protein BlmI, apo-form, produced from pBS2) (Streptomyces verticillus ATCC15003); experiment: cell-based or functional assay
[4] = biological target: T3, apo-BlmI (type II peptidyl carrier protein BlmI, apo-form, produced from pBS2)
T3 chain: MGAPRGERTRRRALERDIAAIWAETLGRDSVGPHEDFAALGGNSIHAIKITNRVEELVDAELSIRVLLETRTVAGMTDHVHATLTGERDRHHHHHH

apo-BlmI = experiment: In vitro 4′-phosphopantetheinylation of BlmI by Sfp with [3H-pantetheine]-CoA; type: biochemical, Streptomyces verticillus; settings: autoradiographic analysis
Protocol: To investigate 4′-phosphopantetheinylation of BlmI in vitro, we chose the Sfp protein as the preferred PPTase, which had been isolated before from the surfactin producer Bacillus subtilis (Nakano et al. (1992) Mol. Gen. Genet. 232: 313-321).
Expression of sfp in E. coli MV1190(pUC8-Sfp), purification of the Sfp PPTase to homogeneity, and 4′-phosphopantetheinylation of apo-BlmI by Sfp in vitro were carried out essentially according to literature procedures (Quadri et al. (1998) Biochemistry 37: 1585-1595; Nakano et al. (1992) Mol. Gen. Genet. 232: 313-321). A typical 100 μl assay solution contained 26 μM apo-BlmI, 2.9 μM Sfp, 25 μM [^3H-pantetheine]-CoA (0.9 μCi, 40 Ci/mM), 10 mM MgCl2, and 5 mM DTT, in 75 mM MES/NaOAc buffer, pH 6.0. After 30 min incubation at 37° C., the assays were stopped by addition of 5 μl of bovine serum albumin (0.2 mg/ml) and 0.9 ml of cold 10% (v/v) trichloroacetic acid (TCA). The precipitated proteins were collected by centrifugation at 14,000 rpm, 20 min, 4° C. (Eppendorf 5415C centrifuge), washed with 10% TCA three times, and resolved by SDS-PAGE on 15% gel. The ^3H-activity incorporated into holo-BlmI was similarly determined by autoradiography as described for in vivo labeling of holo-Blm with [3-^3H]-β-alanine.

[5] = tested on: E. coli endogenous PPTases; experiment: In vivo 4′-phosphopantetheinylation of BlmI in E. coli OG7001 without Gsp; type: cell-based; settings: E. coli OG7001(pBS2), HPLC analysis
From the text: (§1) To examine 4′-phosphopantetheinylation of BlmI in vivo, we chose E. coli OG7001 as the expression host, which is a β-alanine auxotroph derived from E. coli BL21(DE3) by P1 co-transduction of the panD mutation from E. coli SJ16 (Epple et al. (1998) J. Bacteriol. 180: 4950-4954). Upon introduction of pBS2 into E. coli OG7001, blmI was exceptionally well expressed and the overproduced BlmI protein was readily purified. […] To circumvent the poor endogenous PPTase activity, we next co-expressed blmI with the gsp gene, which was isolated from the gramicidin S producer Bacillus brevis, and encoded a PPTase that was known to 4′-phosphopantetheinylate heterologously produced PCPs in E. coli (Lambalot et al. (1996) Chem. Biol. 3: 923-936; Ku et al. (1997) Chem. Biol. 4: 203-207). We co-transformed pDPT-Gsp, in which the expression of the gsp gene was under the control of the T5/Lac promoter (Ku et al. (1997) Chem. Biol. 4: 203-207), and pBS2 into E. coli OG7001. BlmI was again very well expressed and the resulting BlmI protein was similarly purified. […]
(§2) Samples of BlmI (30-70 μg) purified from E. coli OG7001(pBS2) or E. coli OG7001(pBS2/pDPT-Gsp) were analyzed on a Nova-Pak C18 column (5 mm×10, Waters, Milford, Mass.) using a Rainin DMAX HPLC unit. […]

Gsp PPTase = biological target: T4, Gsp PPTase (Aneurinibacillus migulanus, UniProt P40683); experiment: In vivo 4′-phosphopantetheinylation of BlmI co-expressed with gsp in E. coli OG7001; type: cell-based; settings: E. coli OG7001(pBS2/pDPT-Gsp), HPLC analysis
T4 construct: expressed in transfected cells; host or cells: E. coli OG7001 (pBS2/pDPT-Gsp)
T4 sequence (P40683 whole entry, looked up): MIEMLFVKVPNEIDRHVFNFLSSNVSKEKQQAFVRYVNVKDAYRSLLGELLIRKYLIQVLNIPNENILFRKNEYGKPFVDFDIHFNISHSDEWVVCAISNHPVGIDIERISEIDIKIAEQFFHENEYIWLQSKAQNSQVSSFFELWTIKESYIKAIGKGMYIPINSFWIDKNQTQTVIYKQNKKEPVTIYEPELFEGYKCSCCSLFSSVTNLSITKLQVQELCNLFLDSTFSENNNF
From the text: as §1, §2

TcmM = biological target: T5, TcmM (Streptomyces glaucescens, UniProt P12884); experiment: In vitro phosphopantetheinylation assay of PptA; type: biochemical, S. glaucescens; settings: (3H)-(pantetheinyl)-CoASH, autoradiography
T5 construct: His6 (N); His6 (C); made in house; host or cells: E. coli BL21(DE3) (pET28a-TcmM)
T5 sequence (P12884 1-83): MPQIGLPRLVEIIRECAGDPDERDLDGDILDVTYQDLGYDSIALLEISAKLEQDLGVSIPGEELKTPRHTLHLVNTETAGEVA
T5 sequence (Q9F0Q6 1-246 partner): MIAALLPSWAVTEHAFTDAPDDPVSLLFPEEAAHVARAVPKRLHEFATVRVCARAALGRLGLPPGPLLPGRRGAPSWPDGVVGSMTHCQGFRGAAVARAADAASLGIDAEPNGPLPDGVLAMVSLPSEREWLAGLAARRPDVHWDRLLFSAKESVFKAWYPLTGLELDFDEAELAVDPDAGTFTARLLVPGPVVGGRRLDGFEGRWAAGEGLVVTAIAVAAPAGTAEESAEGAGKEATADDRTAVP

MBlmX-2 = experiment: In vitro phosphopantetheinylation assay of PptA; settings: (3H)-(pantetheinyl)-CoASH, autoradiography
Sequence of MBlmX-2 (as listed by the source, one chain of several): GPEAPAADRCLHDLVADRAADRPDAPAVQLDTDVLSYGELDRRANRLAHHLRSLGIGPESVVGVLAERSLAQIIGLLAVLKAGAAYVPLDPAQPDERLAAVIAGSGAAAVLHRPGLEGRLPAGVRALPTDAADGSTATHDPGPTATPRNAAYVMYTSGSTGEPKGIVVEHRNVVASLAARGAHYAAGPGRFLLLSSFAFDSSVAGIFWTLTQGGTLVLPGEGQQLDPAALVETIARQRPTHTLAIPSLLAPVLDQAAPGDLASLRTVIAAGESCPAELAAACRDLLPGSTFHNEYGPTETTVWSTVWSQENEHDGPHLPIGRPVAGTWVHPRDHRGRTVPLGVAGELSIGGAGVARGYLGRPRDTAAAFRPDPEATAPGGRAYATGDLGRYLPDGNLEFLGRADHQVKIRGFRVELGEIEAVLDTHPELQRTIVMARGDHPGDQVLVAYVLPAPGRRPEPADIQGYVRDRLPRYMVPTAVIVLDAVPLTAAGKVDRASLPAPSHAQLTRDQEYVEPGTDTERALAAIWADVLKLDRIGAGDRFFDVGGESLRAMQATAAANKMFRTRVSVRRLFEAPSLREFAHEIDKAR

BlmI = experiment: In vitro phosphopantetheinylation assay of PptA; settings: (3H)-(pantetheinyl)-CoASH, autoradiography
BlmVIII = experiment: In vitro phosphopantetheinylation assay of PptA; type: biochemical, S. verticillus; settings: (3H)-(pantetheinyl)-CoASH, autoradiography
Sequence of BlmVIII (as listed by the source, one chain of several): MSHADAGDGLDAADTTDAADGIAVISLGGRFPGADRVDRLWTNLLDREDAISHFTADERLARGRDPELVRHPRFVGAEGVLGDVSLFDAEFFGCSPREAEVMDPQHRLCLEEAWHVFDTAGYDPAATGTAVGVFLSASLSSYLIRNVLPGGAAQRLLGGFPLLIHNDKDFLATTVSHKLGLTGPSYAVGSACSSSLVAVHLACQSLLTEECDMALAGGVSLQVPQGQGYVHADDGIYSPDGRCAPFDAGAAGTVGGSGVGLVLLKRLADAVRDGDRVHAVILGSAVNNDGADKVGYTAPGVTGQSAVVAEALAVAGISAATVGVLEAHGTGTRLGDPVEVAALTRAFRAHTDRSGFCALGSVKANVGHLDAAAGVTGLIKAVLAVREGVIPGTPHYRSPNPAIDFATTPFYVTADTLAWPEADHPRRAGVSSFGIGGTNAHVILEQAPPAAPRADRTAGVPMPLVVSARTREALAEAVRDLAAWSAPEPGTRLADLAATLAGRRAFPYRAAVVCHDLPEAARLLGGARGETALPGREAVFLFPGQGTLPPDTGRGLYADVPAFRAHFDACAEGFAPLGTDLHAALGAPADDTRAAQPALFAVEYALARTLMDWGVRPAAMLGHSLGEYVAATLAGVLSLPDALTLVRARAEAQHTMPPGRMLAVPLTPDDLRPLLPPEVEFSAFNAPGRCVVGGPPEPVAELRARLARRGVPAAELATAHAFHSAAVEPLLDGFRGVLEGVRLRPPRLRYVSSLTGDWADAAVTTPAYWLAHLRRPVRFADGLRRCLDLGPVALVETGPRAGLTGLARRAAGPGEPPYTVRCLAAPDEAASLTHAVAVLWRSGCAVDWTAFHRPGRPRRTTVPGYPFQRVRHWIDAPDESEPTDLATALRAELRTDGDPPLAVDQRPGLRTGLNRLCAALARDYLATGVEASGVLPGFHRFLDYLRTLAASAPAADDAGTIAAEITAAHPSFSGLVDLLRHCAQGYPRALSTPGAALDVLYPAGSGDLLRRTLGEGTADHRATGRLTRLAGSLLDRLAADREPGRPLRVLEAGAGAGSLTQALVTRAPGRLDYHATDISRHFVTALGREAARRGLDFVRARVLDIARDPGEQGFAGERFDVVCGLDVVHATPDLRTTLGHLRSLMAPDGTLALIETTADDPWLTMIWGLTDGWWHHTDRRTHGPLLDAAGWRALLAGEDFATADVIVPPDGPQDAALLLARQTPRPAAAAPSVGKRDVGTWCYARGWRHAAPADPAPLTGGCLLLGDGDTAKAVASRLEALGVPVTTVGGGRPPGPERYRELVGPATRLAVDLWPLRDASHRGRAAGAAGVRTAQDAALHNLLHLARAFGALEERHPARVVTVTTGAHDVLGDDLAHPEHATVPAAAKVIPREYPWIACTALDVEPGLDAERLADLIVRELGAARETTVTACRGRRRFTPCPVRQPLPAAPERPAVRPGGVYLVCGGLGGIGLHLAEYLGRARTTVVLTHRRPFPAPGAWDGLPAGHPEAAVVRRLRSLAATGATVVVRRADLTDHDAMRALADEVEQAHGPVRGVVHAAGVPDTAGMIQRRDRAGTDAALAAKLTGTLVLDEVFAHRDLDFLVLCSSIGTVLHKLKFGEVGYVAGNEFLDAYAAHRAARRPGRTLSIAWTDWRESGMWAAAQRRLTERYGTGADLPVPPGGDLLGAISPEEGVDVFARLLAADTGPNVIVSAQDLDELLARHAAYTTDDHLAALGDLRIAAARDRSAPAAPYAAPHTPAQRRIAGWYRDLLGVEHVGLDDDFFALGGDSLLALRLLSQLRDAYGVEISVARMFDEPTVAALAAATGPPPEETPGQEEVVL

Val-A (adenylation domain of a type I NRPS from a gene cluster of Sv ATCC15003 unrelated to BLM biosynthesis)
in vitro aminoacylation in trans with L-[^14C(U)]valine and ATP, SDS-PAGE and autoradiography [1]: the holo-BlmI was specifically labeled by L-[^14C(U)]valine in the presence of Val-A | in vitro aminoacylation in trans with L-[^14C(U)]valine and ATP, SDS-PAGE and autoradiography [2]: nor incubation of L-[^14C(U)]valine with the Val-A and apo-BlmI proteins, resulted in the detection of ^14C-labeled BlmI protein

Gsp PPTase from the gramicidin S producer Bacillus brevis (from UniProt P40683 1-237) (enzyme)
in vivo 4′-phosphopantetheinylation on co-expression with gsp, HPLC analysis [3]: > 60%

B1: Sfp PPTase from the surfactin producer Bacillus subtilis (protein)
chain: MKIYGIYMDRPLSQEENERFMSFISPEKREKCRRFYHKEDAHRTLLGDVLVRSVISRQYQLDKSDIRFSTQEYGKPCIPDLPDAHFNISHSGRWVICAFDSQPIGIDIEKTKPISLEIAKRFFSKTEYSDLLAKDKDEQTDYFYHLWSMKESFIKQEGKGLSLPLDSFSVRLHQDGQVSIELPDSHSPCYIKTYEVDPGYKMAVCAAHPDFPEDITMVSYEELL
in vitro 4′-phosphopantetheinylation with [^3H-pantetheine]-CoA, autoradiography [4]: the apo-BlmI was quantitatively labeled by [^3H-pantetheine]-CoA, and no labeling was observed in the absence of either the apo-BlmI or the Sfp PPTase protein | transfer of 4′-phosphopantetheine group from CoA to apo-BlmI (apo-BlmI): can recognize apo-BlmI as a substrate

B2: BlmI: type II peptidyl carrier protein of 90 amino acids encoded by blmI (protein)
chain: MGAPRGERTRRRALERDIAAIWAETLGRDSVGPHEDFAALGGNSIHAIKITNRVEELVDAELSIRVLLETRTVAGMTDHVHATLTGERDRHHHHHH
modifications: left off: small tags and cut ends
notes: type II peptidyl carrier protein of 90 amino acids encoded by blmI
form of purified BlmI [5]: essentially in the apo-form | overproduced BlmI modified into the holo-BlmI protein (Gsp PPTase): at least 60%

B3: PptA: phosphopantetheinyl transferase of 246 amino acids encoded by pptA from S. verticillus ATCC15003 (protein)
chain: MIAALLPSWAVTEHAFTDAPDDPVSLLFPEEAAHVARAVPKRLHEFATVRVCARAALGRLGLPPGPLLPGRRGAPSWPDGVVGSMTHCQGFRGAAVARAADAASLGIDAEPNGPLPDGVLAMVSLPSEREWLAGLAARRPDVHWDRLLFSAKESVFKAWYPLTGLELDFDEAELAVDPDAGTFTARLLVPGPVVGGRRLDGFEGRWAAGEGLVVTAIAVAAPAGTAEESAEGAGKEATADDRTAVPHHHHHH
PPTase activity on type II ACP (TcmM): able to posttranslationally modified | PPTase activity on type I PCP (MBlmX-2): robust phosphopantetheinylation activity | PPTase activity on type II PCP (BlmI): robust phosphopantetheinylation activity | PPTase activity on type I ACP (BlmVIII): able to posttranslationally modified

Source: patent US6927286B1, “Bleomycin gene cluster components and their uses” (The Regents of the University of California, priority 1999, dated 2005)
